Measurements from US20240092919A1 (Ablynx, published 2024).
Positions count from the first letter of the chain named. Names and notes keep the numbering of the source.

T1: Cynomolgus TCR(AEA41865/AEA41866)-zipper protein (cynomolgus monkey)
T1 construct: also called cyTCR-zipper protein; cynoTCR zipper
T1 TCR alpha: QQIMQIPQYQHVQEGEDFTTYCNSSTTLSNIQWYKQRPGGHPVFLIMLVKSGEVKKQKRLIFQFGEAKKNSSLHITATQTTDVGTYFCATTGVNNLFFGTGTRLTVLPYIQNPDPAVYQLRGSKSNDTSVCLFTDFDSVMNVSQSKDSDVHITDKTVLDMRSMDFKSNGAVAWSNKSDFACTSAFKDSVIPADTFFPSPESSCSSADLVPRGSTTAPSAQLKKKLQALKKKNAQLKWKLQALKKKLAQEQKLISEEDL
T1 TCR beta: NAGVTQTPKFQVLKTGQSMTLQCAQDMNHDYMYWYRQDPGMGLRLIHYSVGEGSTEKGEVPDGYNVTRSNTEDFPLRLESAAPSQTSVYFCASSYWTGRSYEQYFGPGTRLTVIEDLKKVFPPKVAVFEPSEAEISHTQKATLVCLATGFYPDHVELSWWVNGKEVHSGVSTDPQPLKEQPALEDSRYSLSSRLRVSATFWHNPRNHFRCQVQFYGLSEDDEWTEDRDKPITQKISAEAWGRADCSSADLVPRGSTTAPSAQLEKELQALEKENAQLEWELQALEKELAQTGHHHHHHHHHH

T2: Human T cell receptor on human primary T cells (human, UniProt P01848 1-140; P01850 1-176)
T2 TCR alpha (looked up): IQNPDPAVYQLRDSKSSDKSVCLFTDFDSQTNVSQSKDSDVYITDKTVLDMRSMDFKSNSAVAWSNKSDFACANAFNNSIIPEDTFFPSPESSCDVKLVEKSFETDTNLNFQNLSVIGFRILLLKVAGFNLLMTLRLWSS
T2 TCR beta (looked up): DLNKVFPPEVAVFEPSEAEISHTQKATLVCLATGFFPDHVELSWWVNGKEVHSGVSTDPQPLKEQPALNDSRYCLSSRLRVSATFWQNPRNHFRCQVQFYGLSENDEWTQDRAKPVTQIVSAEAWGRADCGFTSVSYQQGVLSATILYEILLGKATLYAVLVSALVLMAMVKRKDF

T3: Cynomolgus TCR(AEA41865/AEA41866)-zipper protein (cynomolgus monkey)
T3 construct: also called cyTCR-zipper protein; cynoTCR zipper
T3 TCR alpha: T1 TCR alpha
T3 TCR beta: T1 TCR beta

B1: T017000131 (bispecific antibody)
chain: DVQLVESGGGLVQAGGSLRLSCAASGITSKINDMGWYRQTPGNYREWVASITATGTTNYRDSVKGRFTISRDNAKSTVYLQMNSLKPEDTTVYYCNTFPPISNFWGQGTLVTVSSGGGGSGGGGSGGGGSGGGGSGGGGSGGGGSGGGGSEVQLVESGGGLVQPGGSLRLSCVASGDVHKINFLGWYRQAPGKEREKVAHISIGDQTDYADSAKGRFTISRDESKNMVYLQMNSLKPEDTAVYFCRAFSRIYPYDYWGQGTLVTVSSA
notes: also called A0110056A10(E1D)-35GS-T0170056G05-A
B2: T017000128 (bispecific antibody)
chain: DVQLVESGGGLVQPGGSLRLSCVASGDVHKINFLGWYRQAPGKEREKVAHISIGDQTDYADSAKGRFTISRDESKNMVYLQMNSLKPEDTAVYFCRAFSRIYPYDYWGQGTLVTVSSGGGGSGGGGSGGGGSGGGGSGGGGSGGGGSGGGGSEVQLVESGGGLVQAGGSLRLSCAASGITSKINDMGWYRQTPGNYREWVASITATGTTNYRDSVKGRFTISRDNAKSTVYLQMNSLKPEDTTVYYCNTFPPISNFWGQGTLVTVSSA
B3: T017000639 (bispecific antibody)
chain: B2 chain with L11V, G26W, L34Y, G35T, M77T, K86R, V92L, F94Y, F98L, Y102W
B4: T017000642 (bispecific antibody)
chain: DVQLVESGGGVVQPGGSLRLSCVASWDVHKINFYTWYRQAPGKEREKVAHISIGDQTDYADSAKGRFTISRDESKNTVYLQMNSLRPEDTALYYCRALSKIWPYDYWGQGTLVTVSSGGGGSGGGGSGGGGSGGGGSGGGGSGGGGSGGGGSEVQLVESGGGLVQAGGSLRLSCAASGITSKINDMGWYRQTPGNYREWVASITATGTTNYRDSVKGRFTISRDNAKSTVYLQMNSLKPEDTTVYYCNTFPPISNFWGQGTLVTVSSA
B5: T017000141 (VHH, not shown: small tags and cut ends)
VHH: EVQLVESGGGVVQPGGSLRLSCVASGDVHKINFLGWYRQAPGKEREKVAHISIGDQTDYADSAKGRFTISRDESKNMVYLQMNSLRPEDTALYFCRAFSRIYPYDYWGQGTLVTVSS
notes: also called T0170000141
B6: T017000569 (VHH)
VHH: B5 VHH with I31L, F98M, Y102W
B7: T017000383 (VHH)
VHH: B5 VHH with K30Q, F98M, Y102W
B8: T017000615 (VHH)
VHH: B5 VHH with G26Y, L34Y, F98L, R100K, Y102W
B9: T017000602 (VHH)
VHH: B5 VHH with G26W, K30Q, R100K, Y102W
B10: T017000613 (VHH)
VHH: B5 VHH with G26W, L34Y, F98L, R100K, Y102W
B11: T017000358 (VHH)
VHH: B5 VHH with D27A, I31L, F98M, Y102W
B12: T017000390 (VHH)
VHH: B5 VHH with G26W, K30Q, F98M, R100K, Y102W
B13: T017000468 (VHH)
VHH: B5 VHH with D27S, L34Y, Y102W
B14: T017000625 (VHH, not shown: small tags and cut ends)
VHH: B5 VHH with G26Y, L34Y, M77T, F94Y, F98L, R100K, Y102W
B15: T017000635 (VHH, not shown: small tags and cut ends)
VHH: B5 VHH with G26W, K30Q, L34Y, M77T, F94Y, F98L, Y102W
B16: T017000641 (VHH, not shown: small tags and cut ends)
VHH: B5 VHH with G26W, L34Y, G35T, M77T, F94Y, F98L, R100K, Y102W
B17: T017000623 (VHH, not shown: small tags and cut ends)
VHH: B5 VHH with G26W, L34Y, M77T, F94Y, F98L, R100K, Y102W
B18: T017000691 (VHH, not shown: small tags and cut ends)
VHH: B5 VHH with G26W, D27E, K30Q, L34Y, M77T, F94Y, F98L, Y102W

These binders were tested against T4, Cynomolgus T cell receptor on cynomolgus primary T cells (cynomolgus monkey) (assay: cell-based or functional assay).
Throughout, for % Lysis, T cell mediated MOLM-13 cell killing, cynomolgus primary T cells, E:T 10:1: test concentration or dose not given here.
Throughout, for % Lysis, T cell mediated MOLM-13 cell killing, human primary T cells, E:T 10:1: test concentration or dose not given here.

Row | Binder | % Lysis, T cell mediated MOLM-13 cell killing, cynomolgus primary T cells, E:T 10:1 [%] | EC50 (M), T cell mediated MOLM-13 cell killing, cynomolgus primary T cells, E:T 10:1 [M]
1 | B1 | 14 | 9e-10
2 | B2 | 37 | 1.7e-10
3 | B3 | 28 | 4.1e-11
4 | B4 | 37 | 4e-11

Target: T1, Cynomolgus …
Assay: ratio higher/lower kd on huTCR- and cyTCR-zipper (SPR)
From the text: Unique ISVD clones, i.e. clones with a unique sequence, were subsequently selected and screened to determine their off-rate. To this purpose, the ISVD containing periplasmic extracts were screened on huTCR-zipper and cyTCR-zipper protein by SPR on a ProteOn XPR36 instrument. The zipper proteins were immobilized on a GLC sensor chip (between 4300 and 5100RU) via amine coupling chemistry, using EDC/sulfo-NHS for activation of the carboxyl groups on the chip surface (running buffer: HBS-EP+, pH7.4). Periplasmic extracts were injected at 1/10 dilution for 2 min (at a flow rate of 45 μL/min) and dissociation was followed for 900 s. A pulse of 100 s of 3 M MgCl2 at 45 μL/min was used for regeneration. […] Processed sensorgrams were fitted with the Langmuir model (1:1 interaction) using ProteOn Manager 3.1.0 (Version 3.1.0.6) software.

Row | Binder | gap in off-rate human vs cyno [fold]
5 | B5 | 7.5
6 | B6 | 9
7 | B7 | 5
8 | B8 | 1.1
9 | B9 | 2
10 | B10 | 1
11 | B11 | 8
12 | B12 | 3
13 | B13 | 8

Target: T2, Human T cell receptor on human primary …
Assay: cell-based or functional assay

Row | Binder | % Lysis, T cell mediated MOLM-13 cell killing, human primary T cells, E:T 10:1 [%] | EC50 (M), T cell mediated MOLM-13 cell killing, human primary T cells, E:T 10:1 [M]
14 | B1 | 20 | 1.3e-09
15 | B2 | 32 | 2.3e-10
16 | B3 | 42 | 3.6e-11
17 | B4 | 32 | 3e-10

Target: T4, Cynomolgus T cell receptor on …
Assay: cell-based or functional assay
Remark: another data set of the same source

Row | Binder | % lysis, MOLM-13, Cynomolgus T cell mediated killing [%] | EC50 (M), MOLM-13, Cynomolgus T cell mediated killing [M]
18 | B1 | 14 | 8.9e-10
19 | B2 | 37 | 4.1e-10

Target: T2, Human T cell receptor on human primary …
Assay: cell-based or functional assay
Remark: another data set of the same source

Row | Binder | % lysis, MOLM-13, Human T cell mediated killing [%] | EC50 (M), MOLM-13, Human T cell mediated killing [M]
20 | B1 | 20 | –
21 | B2 | 24 | 3e-10

Target: T3, Cynomolgus …
Assay: higher koff divided by lower koff, humanTCR zipper vs cynoTCR zipper (SPR)

Row | Binder | Gap in off-rate human vs cyno [fold]
22 | B14 | 1
23 | B15 | > 55.9
24 | B16 | 1.1
25 | B17 | 1
26 | B18 | > 61.1

Target: T2, Human T cell receptor on human primary …
Assay: flow cytometry, human primary T cells
Method: The ISVD variants were characterized for binding to CHO-K1 huTCR(2XN9)/huCD3 or to human and cynomolgus primary T cells. […] Next, cells were washed 3 times with FACS buffer and incubated with 1 μg/ml ANTI-FLAG® M2 Ab (Sigma, F1804) and washed again. […] Subsequently, cells were resuspended in FACS buffer supplemented with 5 nM TO-PRO®-3 Iodide to distinguish live from dead cells, which are removed during the gating procedure. Cells were analyzed using a FACS Array flow cytometer (BD Biosciences) and Flowing Software. First a P1 population which represented more than 80% of the total cell population was selected based on FSC-SSC distribution. In this gate, 10000 cells were counted during acquisition. From this population the TO-PRO®-3+cells (dead cells) were excluded and the mean fluorescence intensity (MFI) PE value was calculated.

Row | Binder | EC50 [nM]
27 | B14 | 230
28 | B15 | 70
29 | B16 | 270
30 | B17 | 280
31 | B18 | 150

Target: T4, Cynomolgus T cell receptor on …
Assay: cell-based or functional assay
Remark: another data set of the same source

Row | Binder | IC50 (M), xCELLigence CHO Flp-In huCD123 cell killing, Cynomolgus T cell mediated killing [M]
32 | B1 | 8.1e-11
33 | B2 | 1.9e-11

Target: T2, Human T cell receptor on human primary …
Assay: cell-based or functional assay
Remark: another data set of the same source

Row | Binder | IC50 (M), xCELLigence CHO Flp-In huCD123 cell killing, Human T cell mediated killing [M]
34 | B1 | 3.4e-11
35 | B2 | 1.4e-11

Target: T1, Cynomolgus …
Assay: SPR ProteOn off-rate screen

Row | Binder | koff [s⁻¹]
36 | B6 | 0.00308
37 | B7 | 0.00216
38 | B8 | 0.00087
39 | B9 | 0.00055
40 | B10 | 0.000364
41 | B11 | 0.00115
42 | B12 | 0.000221
43 | B13 | 0.00141

Target: T3, Cynomolgus …
Assay: SPR, ProteOn XPR36, 25 C, immobilised TCR-zipper
From the text: HuTCR-zipper or cyTCR-zipper protein was immobilized on a GLC sensor chip (between 100-200 RU) via amine coupling chemistry, using EDC/NHS for activation of the carboxyl groups on the chip surface (running buffer: HBS-EP+, pH7.4). […] Processed sensorgrams were fitted with the Langmuir model (1:1 interaction) using ProteOn Manager 3.1.0 (Version 3.1.0.6) software.

Row | Binder | Kd [nM]
44 | B1 | 1600
45 | B3 | 44
46 | B4 | 5.5

Target: T4, Cynomolgus T cell receptor on …
Assay: cell-based or functional assay
Remark: another data set of the same source

Row | Binder | % lysis, KG-1a, Cynomolgus T cell mediated killing [%] | EC50 (M), KG-1a, Cynomolgus T cell mediated killing [M]
47 | B1 | 14 | 1.6e-09
48 | B2 | 61 | 6.7e-10

Target: T2, Human T cell receptor on human primary …
Assay: cell-based or functional assay
Remark: another data set of the same source

Row | Binder | % lysis, KG-1a, Human T cell mediated killing [%] | EC50 (M), KG-1a, Human T cell mediated killing [M]
49 | B1 | 29 | 2.4e-09
50 | B2 | 51 | 1.3e-09
